Source: the supplement of paper PMC9170038

Test system: MS2 coat protein
Assay: apparent KD of MS2 coat protein; higher = weaker reporter binding
Details: Eterna round: R107; input ligand: arginine 13.2 mM
Summary of the method: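 Designed RNA switches were made by on-chip transcription from Illumina sequencing clusters and then titrated with SNAP-549-labelled MS2 coat protein. Twofold steps ran from 0.7 or 1.5 nM to 3 µM, each lasting 0.8–1.5 h early and 10–20 min late, in 100 mM Tris-HCl pH 7.5, 80 mM KCl, 4 mM MgCl2, without or with constant ligand. Apparent KD is the per-design median of normalised cluster binding-curve fits.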

With “UGUAACAUGAGGAUCACCCAUGUGAGUGAUACCAGACUAGUAUUAGUCCCUUGGCAGCACGCUGGGCGAGUGUAUAGUCUAUGCG [Same State - Theophylline A (Freestyle 15)]” as the sequence, how does the “apparent KD of MS2 coat protein” value read?
The value was 69 nM.

“AUCGUACCUGAGGAUACCAGCAUGUGAUCAUAACAUGAGGAUCACCCAUGUAAUCAGUGAUGCCCUUGGCAGCUUGGUCGGUACA [Same State - Theophylline B (Freestyle 10)]” was tested. Which “apparent KD of MS2 coat protein” value did it give?
The value was 34.8 nM.

For “CAUAUUGUAACUGAUACCAGUGUACUGACAUGAGGAUCACCCAUGUUGGGUUUUGUUGUACACCCUUGGCAGCAGAAUCAAUAUG [AstrosExyTheB#4]”, which “apparent KD of MS2 coat protein” value is on record?
The value was 45.6 nM.

How did the “apparent KD of MS2 coat protein” value turn out when “AUUAAGGAUAUAUAGAAGGCGGAGAAGAGACGAGGACCGGUACGGCCGCCACUCGUGUUAGUUAACAUGAGGAUCACCCAUGUAA [Turkey 2]” was run?
The value was 41.3 nM.

For “CUCUCAUGAACAUGAGGAUCACCCAUGUAACGAGGACCGGUACGGCCGCCACUCGAACGUGGAUACCAAUCGAGUGGGUGAGAGA [Tryp A Ex t5]”, which “apparent KD of MS2 coat protein” value is on record?
Its value is 31 nM.

Which “apparent KD of MS2 coat protein” value does the source give for “AAAAUAAAAUAAAAGGUGGAAAUAAGGCGGCGAGGACCGGUACGGCCGCCACUCGCGUACAUGAGGAUCACCCAUGUCUGAAAAU [Same State - Tryptophan A (Freestyle 1)]” here?
Its value is 20.3 nM.

For “UGACAUUGCUCAGAUACCAGACAUGAGCAUCAGCCAUGUGCCAACAAGUACAUAAUAAAUGUCCCUUGGCAGCUGAGCAAUGUCU [TheoBX 16 #MS2Left #Theo2 #AlternativeMS2]”, which “apparent KD of MS2 coat protein” value is on record?
The value was 14.3 nM.

With “UAUGCACAUGAGGAUCACCCAUGUAUGGAAGGAGCGGUGAAUAAACCAGGUAGGUCGCCAUUGUGAGGGUCAUCUAUGUAAUCGU [Exclusion - Arginine A (Freestyle 4)]” as the sequence, how does the “apparent KD of MS2 coat protein” value read?
Its value is 58.6 nM.

For “AGACAUGAGGAUCACCCAUGUAGUAUGGAUACCAGAUGUAGAUUAGUCCCUUGGCAGCUGUGCUGAAGUGAUGCAUUGCUCCUAG [#15 Exclusion-TheophyllineA]”, which “apparent KD of MS2 coat protein” value is on record?
Its value is 21.9 nM.

“ACGUGGAAAAUUUGUGGUGCUGCCUCAGGCCGAGGACCGGUACGGCCGCCACUCGUACAUGAGGAUCACCCAUGUCGAGUCACUG [Isanso]” was tested. Which “apparent KD of MS2 coat protein” value did it give?
The value was 19.2 nM.

With “AUAUGAUCAUGUGAUACCAGAAAUGGUAGUCUUCACUGGAUUACAUGAGGAUCACCCAUGUUCCCUUGGCAGCAUAUGAUCAUAU [#03 Exclusion-TheophyllineB]” as the sequence, how does the “apparent KD of MS2 coat protein” value read?
Its value is 31.7 nM.

Which “apparent KD of MS2 coat protein” value does the source give for “UGACAUUGCUCAGAUACCAGACAUGAGGAUCACCCAUGUACCAAGGUACGAAAAUAACAUGUCCCUUGGCAGCUGAGCAAUGUCU [First try 2 #MS2Left #Theo2]” here?
The value was 16.7 nM.

How did the “apparent KD of MS2 coat protein” value turn out when “UGUAUGGACUGAAGGAGCGGAUGAUAUCAUGAGGAUCACCCAUGGAAUAAGGCGAAAGCCAUCCAGGUAGGUCGCAGUCCAUACU” was run?
The value was 45.6 nM.

How did the “apparent KD of MS2 coat protein” value turn out when “CAAUUUAGAAAACUAAAUUGAGUGGGUGAACGAGGACCGGUACGGCCGCCACUCGGACAUGAGGAUCACCCAUGUCCAUGUGAAA [AstrosExyTryA#23]” was run?
Its value is 11.3 nM.

With “ACUCGGUAUGUCUAAUACCGAGAGUAUGAUACCAGUAUGGUGACAUACCCUUGGCAGCAUGGGACAUGAGGAUCACCCAUGUGUU [SSThA NP+V+V2 #10 Same Structure]” as the sequence, how does the “apparent KD of MS2 coat protein” value read?
The value was 119 nM.

With “ACUAGUUGUGCAGAUACCAGGCACGAGGAUCACCCGUGUUUGGGAUGUUCGCAUCUUCCUGUCCCUUGGCAGCUGUACAUCUAGA [Omei Theo B Exc v9]” as the sequence, how does the “apparent KD of MS2 coat protein” value read?
The value was 29.6 nM.

Which “apparent KD of MS2 coat protein” value does the source give for “GUAUCUAUGUGAAAUAGAUAUAUAACUGAAGGAGCGUCAUUAAGGACAGGUAGGUCGCAGAGCACCUGAGGAUCACCCAGGUAGG [Arg A SS s1]” here?
The value was 27 nM.

With “UACUUGCUGACGGCCGCCACUAGAACAUGAGGAUCACCCAUGUAUGGCGGCCGAAUCCUCAUGACUAGGACCGGGUCAGCAAGAU [(Trp1)-(Ms2)-(T)'-(M)'-(Trp2)_Design2]” as the sequence, how does the “apparent KD of MS2 coat protein” value read?
The value was 8.18 nM.

“GCUACAUGAGGAUCACCCAUGUAUGCGAGCCGAGGACCGGUACGGCCGCCACUCGCUUAACAUGAGGAUCACCCAUGUUUCUCGG [SSTA DOUBLE!!! :-D #16]” was tested. Which “apparent KD of MS2 coat protein” value did it give?
Its value is 69.9 nM.

Which “apparent KD of MS2 coat protein” value does the source give for “CAGUGAGAGUCGGCCGCCACUUAACGCAAGUAGCGCAACCCAAAACAUGAGGAUCACCCAUGUCGAAGGACCGGGACAAUGAGCG [theeternabot_sameState_MS2_Trp_B_47]” here?
The value was 11.5 nM.

With “CCGCCCACGAAUGAUACCAGCUAAAAUCAUGUACCAGACACAUGAGGAUCACCCAUGUAAAGCCCUUGGCAGCGUACGCCACCCG [e-theoB-?]” as the sequence, how does the “apparent KD of MS2 coat protein” value read?
The value was 25.5 nM.

How did the “apparent KD of MS2 coat protein” value turn out when “ACGAUAGCACACGAGGAUCACCCGUGUGAUACCAGCCUGGAAACAGGCCCUUGGCAGCACACAAUAAAAGUGUAACUAUCGAAUA [TheoAX4 #MicroSwitchBubble #AlternativeMS2]” was run?
Its value is 40.2 nM.

Which “apparent KD of MS2 coat protein” value does the source give for “ACAUGAGGAUCACCCAUGUAUUACCGGGAAGGAGCGCGUGAAAACGCAGGUAGGUCGCUCGGCGUCGUGCUGUAAAGCACGACGA [#1 Same State - Arginine A Attempt #25 (HarryS)]” here?
The value was 13.3 nM.

How did the “apparent KD of MS2 coat protein” value turn out when “GCUGCUUUGGGAAGGAGCGCUGCGUUAUCAUGUUGGACAUGAGGAUCACCCAUGUAAAUGUAGCAGGUAGGUCGCUUAGGGCAGC [EAP NP+V+V2 #15]” was run?
Its value is 40.8 nM.

For “UGUAUGUGAUCUGAUACCAGCUUAAUAACAUGAGCAUCAGCCAUGUGGAGCGGAAACGCUAGCCCUUGGCAGCAGAUCGCAUACU [Denovo 11 #StaticStem #AlternativeMS2]”, which “apparent KD of MS2 coat protein” value is on record?
Its value is 101 nM.

How did the “apparent KD of MS2 coat protein” value turn out when “ACGACGCAUAGUGAUACCAGCACAACAUGAGGAUCACCCAUGUCACUUAUGUAGUAAUAAUGCCCUUGGCAGCACUAUGCGUCAG [SSTheo B #1]” was run?
The value was 40.7 nM.

For “ACAUGAGGAUCACCCAUGUGAAGCAGGGUACGAGGACCGGUACGGCCGCCACUCGAGCAUUAUAACGAGUGAAUGGCAACGAUGU [whbob_Ex_trypto A_2s16]”, which “apparent KD of MS2 coat protein” value is on record?
Its value is 11.7 nM.

With “CAGUGAGAACGAAGGAGCGCUGAAUGAUGUGGACAUGAGGAUCACCCAUGUUAAGUCCAAUGGCAGGUAGGUCGCGUAACACUAG [Same State - Arginine B]” as the sequence, how does the “apparent KD of MS2 coat protein” value read?
The value was 14.1 nM.

For “AAACUGAUCUUCAGGAGUCACUAUAUCUCCCGAGGACCGGUACGGCCGCCACUCGAACGUUUACAUGAGGAUCACCCAUGUGACU [theeternabot_exclusion_MS2_Trp_A_4]”, which “apparent KD of MS2 coat protein” value is on record?
The value was 13.6 nM.

For “CUCAUCCACGCGGCCGCCACUAUAUUGUGGUGUGAAUGUGUCGUAAUACAUGAGGAUCACCCAUGUAGGACCGGGCGUGGAUGAG [#08 Exclusion Tryptophan B]”, which “apparent KD of MS2 coat protein” value is on record?
The value was 19.3 nM.

How did the “apparent KD of MS2 coat protein” value turn out when “UGUACCAUGUCGGCCGCCACUUGAAAUAAACAAGAGGAUCACCCUUGUGACGUCAAAGACGUCUCAAGGACCGGGACAUGGUACU [TryBS Zipper #StaticStem #Zipper]” was run?
The value was 168 nM.

With “CGGGUUCGGGCGGCCGCCACUUUGAUUGGGUGUGACAUGAGGAUCACCCAUGUUGUGGGUGAUCGGAGGACCGGGUUUGGGCUUG [Fidorka]” as the sequence, how does the “apparent KD of MS2 coat protein” value read?
Its value is 85.2 nM.

“AUACAUGAGGAUCACCCAUGUUAUAGUGAAGGAGCGACGUUUAUGUCAGGUAGGUCGCACUGUUGUUUAAUGAUUCUUGGAUCUU [#21 Exclusion - Arginine A]” was tested. Which “apparent KD of MS2 coat protein” value did it give?
The value was 15.3 nM.

“ACAUGAGGAUCACCCAUGUAUGAUGUUCCUCGAGGACCGGUACGGCCGCCACUCGAACGAGUGGCGCGCGAGUGCGCACUCGCGC [aWa]” was tested. Which “apparent KD of MS2 coat protein” value did it give?
Its value is 21.1 nM.

How did the “apparent KD of MS2 coat protein” value turn out when “AGGAACAUGAGGAUCACCCAUGUAAGCGAUACCAGUGAUAUGUUGCGCCCUUGGCAGCGCAAGUGUGUGUGAAAGAUGUAAGAUU [Eclusion - Theophylline A / A]” was run?
The value was 14.6 nM.

“ACAUGAGGAUCACCCAUGUAAAUAACGGAAGGAGCGUGCGAAAGCACAGGUAGGUCGCCGAUAUAAAUAUUGGGUAUUAUAUUAU [#28 Exclusion - Arginine A]” was tested. Which “apparent KD of MS2 coat protein” value did it give?
The value was 17.8 nM.

“ACGAACUGUAGUGAUACCAGACGUACAUGAGGAUCACCCAUGUUGUAAACAUGGUUAAUAGUCCCUUGGCAGCACAGUUAGUUCG [JR_ExcTheophyB_Sub002]” was tested. Which “apparent KD of MS2 coat protein” value did it give?
Its value is 105 nM.
